Laboratory results from US20250019450A1 (DIAGONAL THERAPEUTICS, published 2025).

Target: human IL-12 receptor (IL-12Rβ1 and IL-12Rβ2) on HEK-Blue IL-12 cells (human, UniProt P42701 24-662; Q99665 24-862)
Assay: cell-based or functional assay

Chain of human IL-12 receptor (IL-12Rβ1 and IL-12Rβ2) on HEK-Blue IL-12 cells (Q99665 24-862, chain 2 of 2, other chains not shown): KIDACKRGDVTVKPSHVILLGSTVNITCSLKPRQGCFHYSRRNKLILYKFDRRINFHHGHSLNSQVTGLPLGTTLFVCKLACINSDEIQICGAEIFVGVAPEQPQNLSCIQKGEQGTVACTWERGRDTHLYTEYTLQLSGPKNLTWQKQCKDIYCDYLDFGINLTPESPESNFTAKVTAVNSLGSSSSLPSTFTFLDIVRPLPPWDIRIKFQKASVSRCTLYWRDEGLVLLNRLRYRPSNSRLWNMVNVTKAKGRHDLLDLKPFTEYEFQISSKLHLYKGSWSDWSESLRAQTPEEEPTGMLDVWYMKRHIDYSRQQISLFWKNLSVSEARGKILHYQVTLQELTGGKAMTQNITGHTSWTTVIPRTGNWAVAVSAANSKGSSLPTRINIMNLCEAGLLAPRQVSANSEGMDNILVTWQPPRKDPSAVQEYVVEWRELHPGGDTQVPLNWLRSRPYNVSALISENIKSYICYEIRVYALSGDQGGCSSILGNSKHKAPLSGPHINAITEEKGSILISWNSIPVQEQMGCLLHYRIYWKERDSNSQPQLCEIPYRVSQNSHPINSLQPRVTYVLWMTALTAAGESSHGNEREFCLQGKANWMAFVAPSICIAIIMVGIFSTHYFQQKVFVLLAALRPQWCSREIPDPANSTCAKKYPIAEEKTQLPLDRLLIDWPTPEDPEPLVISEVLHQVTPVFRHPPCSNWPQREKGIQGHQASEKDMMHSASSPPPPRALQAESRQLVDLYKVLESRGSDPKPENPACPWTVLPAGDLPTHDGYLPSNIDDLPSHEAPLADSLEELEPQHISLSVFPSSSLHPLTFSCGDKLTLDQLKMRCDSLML

B1: DGL443 (bispecific antibody, human IgG1, lambda)
heavy 1: not shown
heavy 2: QVTLRESGPALVKPTQTLTLTCTFSGFSLSTSGMCVSWIRQPPGKALEWLALIYWDDDKYYSTSLKTRLTISKDTSKNQVVLTMTNMDPVDTATYYCARMRRGIEAFDIWGQGTMVTVFSASTKGPSVFPLAPSSKSTSGGTAALGCLVKDYFPEPVTVSWNSGALTSGVHTFPAVLQSSGLYSLSSVVTVPSSSLGTQTYICNVNHKPSNTKVDKKVEPKSCDKTHTCPPCPAPEAAGAPSVFLFPPKPKDTLMISRTPEVTCVVVDVSHEDPEVKFNWYVDGVEVHNAKTKPREEQYNSTYRVVSVLTVLHQDWLNGKEYKCKVSNKALPAPIEKTISKAKGQPREPQVCTLPPSRDELTKNQVSLSCAVKGFYPSDIAVEWESNGQPENNYKTTPPVLDSDGSFFLVSKLTVDKSRWQQGNVFSCSVMHEALHNRFTQKSLSLSPG
light: QSVLTQPPSVSGAPGQRVTISCTGSSSNIGAGYDVHWYQQLPGTAPKLLIFGYSNRPSGVPVRFSGSKSGTSASLAITGLLAEDEADFYCQSFDISLTGWVFGGGTKLTVLGQPKAAPSVTLFPPSSEELQANKATLVCLISDFYPGAVTVAWKADSSPVKAGVETTTPSKQSNNKYAASSYLSLTPEQWKSHRSYSCQVTHEGSTVEKTVAPTECS
Max Absorbance: 0.24

B2: DGL427 (bispecific antibody, human IgG1, kappa)
heavy 1: not shown
heavy 2: EVLLVESGGGLVKPGGSLRLSCAASGFTFSSYSMNWVRQAPGKGLEWVSSISSSSDYIHYADSVRGRFTISRDNAKNSLYLQMNSLRAEDTAVYYCARSELGFDYWGQGTLVTVSSASTKGPSVFPLAPSSKSTSGGTAALGCLVKDYFPEPVTVSWNSGALTSGVHTFPAVLQSSGLYSLSSVVTVPSSSLGTQTYICNVNHKPSNTKVDKKVEPKSCDKTHTCPPCPAPEAAGAPSVFLFPPKPKDTLMISRTPEVTCVVVDVSHEDPEVKFNWYVDGVEVHNAKTKPREEQYNSTYRVVSVLTVLHQDWLNGKEYKCKVSNKALPAPIEKTISKAKGQPREPQVCTLPPSRDELTKNQVSLSCAVKGFYPSDIAVEWESNGQPENNYKTTPPVLDSDGSFFLVSKLTVDKSRWQQGNVFSCSVMHEALHNRFTQKSLSLSPG
light: DIQMTQSPSSVSASVGDRVTITCRASQGISIWLAWYQQKPGKAPKPLIYAASSLQSGVPSRFSGSGSGTDFTLTISSLQPEDFATYYCQQANSFPLTFGGGTKVEIKRTVAAPSVFIFPPSDEQLKSGTASVVCLLNNFYPREAKVQWKVDNALQSGNSQESVTEQDSKDSTYSLSSTLTLSKADYEKHKVYACEVTHQGLSSPVTKSFNRGEC
Max Absorbance: 0.25

B3: DGL440 (bispecific antibody, human IgG1, lambda)
heavy 1: not shown
heavy 2: QVQLVQPGAEVKKPGASVKVSCKASGYTFTGYYMHWVRQAPGQGLEWMGWINPKSGGTNYAQKFQGRVTMTRDTSISTAYMELTRLRSDDTAVYYCARDQGYGDYVLKHWGQGTLVTVSSASTKGPSVFPLAPSSKSTSGGTAALGCLVKDYFPEPVTVSWNSGALTSGVHTFPAVLQSSGLYSLSSVVTVPSSSLGTQTYICNVNHKPSNTKVDKKVEPKSCDKTHTCPPCPAPEAAGAPSVFLFPPKPKDTLMISRTPEVTCVVVDVSHEDPEVKFNWYVDGVEVHNAKTKPREEQYNSTYRVVSVLTVLHQDWLNGKEYKCKVSNKALPAPIEKTISKAKGQPREPQVCTLPPSRDELTKNQVSLSCAVKGFYPSDIAVEWESNGQPENNYKTTPPVLDSDGSFFLVSKLTVDKSRWQQGNVFSCSVMHEALHNRFTQKSLSLSPG
light: SYVLTQPPSVSVAPGQTARITCGGDNIGSKSVHWYQQKPGQAPVPVVYDDSDRPSGIPERFSGSNSGNTATLTISRVEAGDEADYYCQVWDSSSDHVVFGGGTKLTVLGQPKAAPSVTLFPPSSEELQANKATLVCLISDFYPGAVTVAWKADSSPVKAGVETTTPSKQSNNKYAASSYLSLTPEQWKSHRSYSCQVTHEGSTVEKTVAPTECS
Max Absorbance: 0.22

B4: DGL415 (bispecific antibody, human IgG1, kappa)
heavy 1: not shown
heavy 2: QVQLVESGGGLVQAGGSLRLSCAASGRTFSRYRMGWFRQAPGKEREFVAAITKSGATTYDADSVKGRFTISRDNAKNTLYLQMNSLKPEDTAVYYCAASYHSNWWPKNADEYAYWGQGTQVTVEPKSSDKTHTCPPCPAPEAAGAPSVFLFPPKPKDTLMISRTPEVTCVVVDVSHEDPEVKFNWYVDGVEVHNAKTKPREEQYNSTYRVVSVLTVLHQDWLNGKEYKCKVSNKALPAPIEKTISKAKGQPREPQVCTLPPSRDELTKNQVSLSCAVKGFYPSDIAVEWESNGQPENNYKTTPPVLDSDGSFFLVSKLTVDKSRWQQGNVFSCSVMHEALHNRFTQKSLSLSPG
light: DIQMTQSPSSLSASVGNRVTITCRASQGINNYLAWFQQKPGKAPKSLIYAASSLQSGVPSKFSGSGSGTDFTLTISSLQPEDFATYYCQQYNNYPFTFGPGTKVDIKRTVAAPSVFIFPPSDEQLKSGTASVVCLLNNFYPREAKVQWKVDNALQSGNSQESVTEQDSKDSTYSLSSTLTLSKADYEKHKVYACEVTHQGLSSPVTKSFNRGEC
Max Absorbance: 0.23

B5: DGL400 (bispecific antibody, human IgG1, kappa)
heavy 1: not shown
heavy 2: B4 heavy 2
light: DIQLTQSPSFLSASVGDRVTITCRASQGISSYLAWYQQKPGKAPKVLIYAASTLQSGVPSRFSGSGSGTEFTLTISSLLPEDFATYFCQQLHRYPYTFGQGAKLEIKRTVAAPSVFIFPPSDEQLKSGTASVVCLLNNFYPREAKVQWKVDNALQSGNSQESVTEQDSKDSTYSLSSTLTLSKADYEKHKVYACEVTHQGLSSPVTKSFNRGEC
Max Absorbance: 0.21

B6: DGL604 (bispecific antibody, V domains shown)
V domain 1: QVQLVESGGGLVQAGGSLRLSCAASRSISSFNEMAWYRQAPGEQRELVATIVSTVGFTNYADSVKGRFTISRDNAKNTVYLQMNSLKAEDTAVYYCNARRISTDYWGQGTQVTVEP
V domain 2: QLQLVESGGGLVQAGGSLRLSCAASGRTFGIHGMGWFRQAPGKEREFAAAIRWSDGTTIHADSVKGRLTISRDNAKNTVYLQMNSLKPEDTAVYYCAATSNPQFGRNWYTVAAGVEYGYWGQGTQVTVEP
Max Absorbance: 0.23

B7: DGL547 (bispecific antibody, V domains shown)
V domain 1: EVQLVESGGGLVQPGGSLRLSCAASGFTLDYYAIGWFRQAPGKEREGVSCISSSDRSTWYADSVKGRFTISRDNAKNTVYLQMHSLKPEDTAVYYCATPCYSDYDPEGYEYDYWGQGTQVTVEP
V domain 2: QLQLVESGGGLVQAGGSLRLSCAASGLTFSGYTVGWFRQAPGKEREFVAAINWSSAYTYSEFVKGRFTISRDNAKNTVYLQMSSLKPEDTAVYYCAAQRSRTSWYASTAEAYDYWGQGTQVTVEP
Max Absorbance: 0.18

B8: DGL425 (bispecific antibody, human IgG1, kappa)
heavy 1: not shown
heavy 2: EVQLVQSGTEVKKPGESLKISCKGSGYSFTSYWIGWVRQMPGKGLEWMGNIYPGDSDTRYSPSFQGHVTISADKSISTAYLQWSSLKASDTAMYYCARRGGGYWGQGTLVTVSSASTKGPSVFPLAPSSKSTSGGTAALGCLVKDYFPEPVTVSWNSGALTSGVHTFPAVLQSSGLYSLSSVVTVPSSSLGTQTYICNVNHKPSNTKVDKKVEPKSCDKTHTCPPCPAPEAAGAPSVFLFPPKPKDTLMISRTPEVTCVVVDVSHEDPEVKFNWYVDGVEVHNAKTKPREEQYNSTYRVVSVLTVLHQDWLNGKEYKCKVSNKALPAPIEKTISKAKGQPREPQVCTLPPSRDELTKNQVSLSCAVKGFYPSDIAVEWESNGQPENNYKTTPPVLDSDGSFFLVSKLTVDKSRWQQGNVFSCSVMHEALHNRFTQKSLSLSPG
light: not shown
Max Absorbance: 0.19

B9: DGL525 (bispecific antibody, V domains shown)
V domain 1: EVQLVESGGGLVQPGGSLRLFCAASRSIFNINIMGWYRQAPGKQREWLASITSGGSTFYADSVKDRFTISRDSVKNTVYLQMNSLKPEDTAAYYCNRYRSVPLNTVYPWGQGTLVTVEP
V domain 2: QVQLVESGGGLVQAGGSLRLSCAASGRTFSSYAMGWFRQAPGKEREFVSAISWSGLSTYYVESVQGRFTISRDNAKNTVYLQMNSLKPEDTAVYYCAASRIYTNYVARSYEYDDWGQGTQVTVEP
Max Absorbance: 0.21

B10: DGL442 (bispecific antibody, human IgG1, lambda)
heavy 1: not shown
heavy 2: QVHLQESGPGLVKPSETLSLTCTVSGGSISYYYWNWIRQPPGKGLEWIASIYNSGNINYNPSLKSRVTISVDTSKNQFSLKLTSVTAADTAVYYCARGGYSYGYFDNWGQGILVTVSSASTKGPSVFPLAPSSKSTSGGTAALGCLVKDYFPEPVTVSWNSGALTSGVHTFPAVLQSSGLYSLSSVVTVPSSSLGTQTYICNVNHKPSNTKVDKKVEPKSCDKTHTCPPCPAPEAAGAPSVFLFPPKPKDTLMISRTPEVTCVVVDVSHEDPEVKFNWYVDGVEVHNAKTKPREEQYNSTYRVVSVLTVLHQDWLNGKEYKCKVSNKALPAPIEKTISKAKGQPREPQVCTLPPSRDELTKNQVSLSCAVKGFYPSDIAVEWESNGQPENNYKTTPPVLDSDGSFFLVSKLTVDKSRWQQGNVFSCSVMHEALHNRFTQKSLSLSPG
light: SYELTQPPSVSVSPGQTASITCSGRELGNKYAYWYQQKPGQSPVLVIYEDYKRPSGIPERFSGSNSGNTATLTISGTQAMDEADYYCQAWDSSTVIFGGGTKLTVLGQPKAAPSVTLFPPSSEELQANKATLVCLISDFYPGAVTVAWKADSSPVKAGVETTTPSKQSNNKYAASSYLSLTPEQWKSHRSYSCQVTHEGSTVEKTVAPTECS
Max Absorbance: 0.22

B11: DGL430 (bispecific antibody, human IgG1, lambda)
heavy 1: not shown
heavy 2: B10 heavy 2
light: B10 light
Max Absorbance: 0.21

B12: DGL407 (bispecific antibody, human IgG1, kappa)
heavy 1: not shown
heavy 2: QVQLVESGGGLVRPGGSLRLSCAASGFTFSSNGMHWFRQAPGKGLEWVSSIGSGGTSIYYADSVKGRFTISRDNAKNTLYLQMNSLKSDDTAVYYCSKEVTGATRGQGTQVTVEPKSSDKTHTCPPCPAPEAAGAPSVFLFPPKPKDTLMISRTPEVTCVVVDVSHEDPEVKFNWYVDGVEVHNAKTKPREEQYNSTYRVVSVLTVLHQDWLNGKEYKCKVSNKALPAPIEKTISKAKGQPREPQVCTLPPSRDELTKNQVSLSCAVKGFYPSDIAVEWESNGQPENNYKTTPPVLDSDGSFFLVSKLTVDKSRWQQGNVFSCSVMHEALHNRFTQKSLSLSPG
light: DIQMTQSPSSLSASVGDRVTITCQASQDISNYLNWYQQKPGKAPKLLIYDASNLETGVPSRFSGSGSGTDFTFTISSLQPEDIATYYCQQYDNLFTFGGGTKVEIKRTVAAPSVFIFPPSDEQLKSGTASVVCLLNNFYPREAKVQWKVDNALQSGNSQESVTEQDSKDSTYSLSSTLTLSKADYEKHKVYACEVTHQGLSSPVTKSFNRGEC
Max Absorbance: 0.17
